We go through five sequences from the supplement of paper PMC5998384.

The test system of data set [1] is HeLa Kyoto. The experiment in a line: solubility change mitosis vs G1/S (difference of NP-40 vs SDS log2 ratios) (log2 ratio difference); higher = more soluble in mitosis.
For data set [2], the system named is HeLa Kyoto. The experiment in a line: thermal stability score vs G1/S (z-score of summed log2 fold changes over temperatures); higher = more thermally stable than in G1/S.
The test system of data set [3] is HeLa Kyoto. Put plainly: solubility in G1/S (NP-40 vs SDS abundance) (log2 ratio); higher = more soluble. The following applies: cell cycle stage: G1/S.
[4] abbreviates: cell cycle stage: early G1 (4.5 h after nocodazole release).
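Throughout, for solubility change mitosis vs G1/S (difference of NP-40 vs SDS log2 ratios): synchronized HeLa Kyoto cells (double thymidine block for G1/S, nocodazole release for mitosis), protein amounts in NP-40 versus SDS lysates quantified by mass spectrometry, three biological replicates.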
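Throughout, for solubility in G1/S (NP-40 vs SDS abundance): HeLa Kyoto cells arrested at G1/S by double thymidine block, proteins quantified by TMT10plex mass spectrometry in mild NP-40 versus SDS extracts, three biological replicates.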
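Throughout, for thermal stability score vs G1/S (z-score of summed log2 fold changes over temperatures): synchronized HeLa Kyoto cells, proteins quantified by TMT10plex mass spectrometry, three biological replicates, mitosis taken 0.5 h after nocodazole release, G1/S directly after double thymidine block.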

Take “MAAVLESLLREEVSVAAVVRWIARSTQGSEDNAGEAAALSSLRALRKEFVPFLLNFLREQSSRVLPQGPPTPAKTPGASAALPGRPGGPPRGSRGARSQLFPPTEAQSTAAEAPLARRGGRRRGPGPARERGGRGLEEGVSGESLPGAGGRRLRGSGSPSRPSLTLSDPPNLSNLEEFPPVGSVPPGPTGTKPSRRINPTPVSEERSLSKPKTCFTSPPISCVPSSQPSALDTSPWGLGLPPGCRSLQEEREMLRKERSKQLQQSPTPTCPTPELGSPLPSRTGSLTDEPADPARVSSRQRLELVALVYSSCIAENLVPNLFLELFFVFQLLTARRMVTAKDSDPELSPAVLDSLESPLFQSIHDCVFFAVQVLECHFQVLSNLDKGTLKLLAENERLLCFSPALQGRLRAAYEGSVAKVSLVMPPSTQAVSFQPETDNRANFSSDRAFHTFKKQRDVFYEVLREWEDHHEEPGWDFEKGLGSRIRAMMGQLSAACSHSHFVRLFQKQLLQMCQSPGGAGGTVLGEAPDVLSMLGADKLGRLWRLQERLMAPQSSGGPCPPPTFPGCQGFFRDFILSASSFQFNQHLMDSLSLKIQELNGLALPQHEPNDEDGESDVDWQGERKQFAVVLLSLRLLAKFLGFVAFLPYRGPEPPPTGELQDSILALRSQVPPVLDVRTLLQRGLQARRAVLTVPWLVEFLSFADHVVPLLEYYRDIFTLLLRLHRSLVLSQESEGKMCFLNKLLLLAVLGWLFQIPTVPEDLFFLEEGPSYAFEVDTVAPEHGLDNAPVVDQQLLYTCCPYIGELRKLLASWVSGSSGRSGGFMRKITPTTTTSLGAQPSQTSQGLQAQLAQAFFHNQPPSLRRTVEFVAERIGSNCVKHIKATLVADLVRQAESLLQEQLVTQGEEGGDPAQLLEILCSQLCPHGAQALALGREFCQRKSPGAVRALLPEETPAAVLSSAENIAVGLATEKACAWLSANITALIRREVKAAVSRTLRAQGPEPAARGERRGCSRACEHHAPLPSHLISEIKDVLSLAVGPRDPDEGVSPEHLEQLLGQLGQTLRCRQFLCPPAEQHLAKCSVELASLLVADQIPILGPPAQYRLERGQARRLLHMLLSLWKEDFQGPVPLQLLLSPRNVGLLADTRPREWDLLLFLLRELVEKGLMGRMEIEACLGSLHQAQWPGDFAEELATLSNLFLAEPHLPEPQLRACELVQPNRGTVLAQS [CDAN1]”: in the data set on HeLa Kyoto [1], the “solubility change mitosis (log2)” value was determined as 0.117. Further, the thermal stability score in the data set on HeLa Kyoto [2] (setting [4]) is 0.128; with HeLa Kyoto [2] (cell cycle stage: mitosis), -0.765. In addition, in the data set with HeLa Kyoto [3], the “solubility in G1/S (log2)” value worked out at 0.0358.
In the same order, the values of “MAGFAELGLSSWLVEQCRQLGLKQPTPVQLGCIPAILEGRDCLGCAKTGSGKTAAFVLPILQKLSEDPYGIFCLVLTPTRELAYQIAEQFRVLGKPLGLKDCIIVGGMDMVAQALELSRKPHVVIATPGRLADHLRSSNTFSIKKIRFLVMDEADRLLEQGCTDFTVDLEAILAAVPARRQTLLFSATLTDTLRELQGLATNQPFFWEAQAPVSTVEQLDQRYLLVPEKVKDAYLVHLIQRFQDEHEDWSIIIFTNTCKTCQILCMMLRKFSFPTVALHSMMKQKERFAALAKFKSSIYRILIATDVASRGLDIPTVQVVINHNTPGLPKIYIHRVGRTARAGRQGQAITLVTQYDIHLVHAIEEQIKKKLEEFSVEEAEVLQILTQVNVVRRECEIKLEAAHFDEKKEINKRKQLILEGKDPDLEAKRKAELAKIKQKNRRFKEKVEETLKRQKAGRAGHKGRPPRTPSGSHSGPVPSQGLV [DDX49]” are -0.0629, 2.1, 1.97 and -0.148.
Take “MAGKAAAPGTAVLLVTANVGSLFDDPENLQKNWLREFYQVVHTHKPHFMALHCQEFGGKNYEASMSHVDKFVKELLSSDAMKEYNRARVYLDENYKSQEHFTALGSFYFLHESLKNIYQFDFKAKKYRKVAGKEIYSDTLESTPMLEKEKFPQDYFPECKWSRKGFIRTRWCIADCAFDLVNIHLFHDASNLVAWETSPSVYSGIRHKALGYVLDRIIDQRFEKVSYFVFGDFNFRLDSKSVVETLCTKATMQTVRAADTNEVVKLIFRESDNDRKVMLQLEKKLFDYFNQEVFRDNNGTALLEFDKELSVFKDRLYELDISFPPSYPYSEDARQGEQYMNTRCPAWCDRILMSPSAKELVLRSESEEKVVTYDHIGPNVCMGDHKPVFLAFRIMPGAGKPHAHVHKCCVVQ [INPP5A]”: in the data set with HeLa Kyoto [1], the “solubility change mitosis (log2)” value was -0.17. Besides, the values for the thermal stability score with HeLa Kyoto [2] (setting [4]) and in the data set on HeLa Kyoto [2] (cell cycle stage: mitosis) were 0.56 and -0.257, respectively. In the data set with HeLa Kyoto [3], the “solubility in G1/S (log2)” value is -0.359.
Turning to “MAGVGDAAAPGEGGGGGVDGPQRDGRGEAEQPGGSGGQGPPPAPQLTETLGFYESDRRRERRRGRTELSLLRFLSAELTRGYFLEHNEAKYTERRERVYTCLRIPRELEKLMVFGIFLCLDAFLYVFTLLPLRVFLALFRLLTLPCYGLRDRRLLQPAQVCDILKGVILVICYFMMHYVDYSMMYHLIRGQSVIKLYIIYNMLEVADRLFSSFGQDILDALYWTATEPKERKRAHIGVIPHFFMAVLYVFLHAILIMVQATTLNVAFNSHNKSLLTIMMSNNFVEIKGSVFKKFEKNNLFQMSNSDIKERFTNYVLLLIVCLRNMEQFSWNPDHLWVLFPDVCMVIASEIAVDIVKHAFITKFNDITADVYSEYRASLAFDLVSSRQKNAYTDYSDSVARRMGFIPLPLAVLLIRVVTSSIKVQGILSYACVILFYFGLISLKVLNSIVLLGKSCQYVKEAKMEEKLSNPPATCTPGKPSSKSQNKCKPSQGLSTEENLSASITKQPIHQKENIIPLLVTSNSDQFLTTPDGDEKDITQDNSELKHRSSKKDLLEIDRFTICGNRID [TAPT1]”, in the data set with HeLa Kyoto [1], the “solubility change mitosis (log2)” value came to 0.0176. The thermal stability score with HeLa Kyoto [2] (setting [4]) is -2.91; with HeLa Kyoto [2] (cell cycle stage: mitosis), -4.92. Further, the “solubility in G1/S (log2)” value in the data set with HeLa Kyoto [3] was -0.313.
With “MALFYVARYPGPDAAAAAGPEGAEAGAHGRARALLERLQSRARERQQQREPAQTEAAASTEPATRRRRRPRRRRRVNDAEPGSPEAPQGKRRKADGEDAGAESNEEAPGEPSAGSSEEAPGEPSAGSSEEAPGERSTSASAEAAPDGPALEEAAGPLVPGLVLGGFGKRKAPKVQPFLPRWLAEPNCVRRNVTEDLVPIEDIPDVHPDLQKQLRAHGISSYFPVQAAVIPALLESAACGFLVGRGGYRPSDLCVSAPTGSGKTLAFVIPVVQALLSRVVCHIRALVVLPTKELAQQVSKVFNIYTDATPLRVSLVTGQKSLAKEQESLVQKTADGYRCLADIVVATPGRLVDHIDQTPGFSLQQLRFLIIDEADRMIDSMHQSWLPRVVAAAFQSEDPADPCALLQRRQAQAVTAASTCCPQMPLQKLLFSATLTQNPEKLQQLGLHQPRLFSTGLAHRGLEDTDGDGDSGKYAFPVGLTHHYVPCSLSSKPLVVLHLVLEMGFSRVLCFTNSRENSHRLFLLVQAFGGVDVAEFSSRYGPGQRRMILKQFEQGKIQLLISTDATARGIDVQGVELVVNYDAPQYLRTYVHRVGRTARAGKTGQAFTLLLKVQERRFLRMLTEAGAPELQRHELSSKLLQPLVPRYEEALSQLEESVKEERKQRAA [DDX51]”, in the data set with HeLa Kyoto [1], the “solubility change mitosis (log2)” value worked out at 1.23. Besides, the thermal stability score is -0.0942 in the data set on HeLa Kyoto [2] (setting [4]) and 1.3 in the data set on HeLa Kyoto [2] (cell cycle stage: mitosis). For the same sequence, in the data set on HeLa Kyoto [3], the “solubility in G1/S (log2)” value is -1.48.
